Measurements taken from paper PMC10397247.

Experiments:
[1] = biological target: T1, 4H1262-AA; test: two-hybrid library CCmax;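 also: natural log of median RNA to DNA barcode read ratio; higher means stronger binding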
T1 chain: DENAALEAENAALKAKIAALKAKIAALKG

[2] = biological target: T2, 4H133-AA; test: two-hybrid library CCmax; settings: mean of both orientations;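 also: natural log of median RNA to DNA barcode read ratio; higher means stronger binding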
T2 chain: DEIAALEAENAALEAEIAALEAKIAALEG

[3] = biological target: T3, 4H1349-AA; test: two-hybrid library CCmax; settings: mean of both orientations;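 also: natural log of median RNA to DNA barcode read ratio; higher means stronger binding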
T3 chain: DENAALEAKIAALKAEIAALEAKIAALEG

[4] = biological target: T4, 4H1384-AA; test: two-hybrid library CCmax; settings: mean of both orientations;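 also: natural log of median RNA to DNA barcode read ratio; higher means stronger binding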
T4 chain: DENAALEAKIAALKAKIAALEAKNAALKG

[5] = biological target: T5, 4H1449-AA; test: two-hybrid library CCmax; settings: mean of both orientations;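 also: natural log of median RNA to DNA barcode read ratio; higher means stronger binding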
T5 chain: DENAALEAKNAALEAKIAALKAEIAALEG

[6] = biological target: T6, 4H1593-AA; test: two-hybrid library CCmax; settings: mean of both orientations;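 also: natural log of median RNA to DNA barcode read ratio; higher means stronger binding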
T6 chain: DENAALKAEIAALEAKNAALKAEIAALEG

[7] = biological target: T7, 4H1878-AA; test: two-hybrid library CCmax; settings: mean of both orientations
T7 chain: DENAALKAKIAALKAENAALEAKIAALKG

[8] = biological target: T8, 4H235-AA; test: two-hybrid library CCmax; settings: mean of both orientations
T8 chain: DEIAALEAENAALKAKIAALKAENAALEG

[9] = biological target: T9, 4H249-AA; test: two-hybrid library CCmax; settings: mean of both orientations
T9 chain: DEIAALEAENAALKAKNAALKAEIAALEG

[10] = biological target: T10, 4H2580-AA; test: two-hybrid library CCmax; settings: mean of both orientations
T10 chain: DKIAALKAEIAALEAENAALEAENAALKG

[11] = biological target: T11, 4H2604-AA; test: two-hybrid library CCmax; settings: mean of both orientations
T11 chain: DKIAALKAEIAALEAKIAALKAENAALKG

[12] = biological target: T12, 4H2621-AA; test: two-hybrid library CCmax; settings: mean of both orientations
T12 chain: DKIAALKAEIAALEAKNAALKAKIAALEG

[13] = biological target: T13, 4H2760-AA; test: two-hybrid library CCmax; settings: mean of both orientations
T13 chain: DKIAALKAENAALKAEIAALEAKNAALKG

[14] = biological target: T14, 4H2774-AA; test: two-hybrid library CCmax; settings: mean of both orientations
T14 chain: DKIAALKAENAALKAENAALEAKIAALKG

[15] = biological target: T15, 4H2903-AA; test: two-hybrid library CCmax; settings: mean of both orientations
T15 chain: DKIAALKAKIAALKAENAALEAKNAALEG

[16] = biological target: T16, 4H2947-AA; test: two-hybrid library CCmax; settings: mean of both orientations
T16 chain: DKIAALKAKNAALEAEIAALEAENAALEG

[17] = biological target: T17, 4H2961-AA; test: two-hybrid library CCmax; settings: mean of both orientations
T17 chain: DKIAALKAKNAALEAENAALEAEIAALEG

[18] = biological target: T18, 4H3049-AA; test: two-hybrid library CCmax; settings: mean of both orientations
T18 chain: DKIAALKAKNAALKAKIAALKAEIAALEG

[19] = biological target: T19, 4H3094-AA; test: two-hybrid library CCmax; settings: mean of both orientations
T19 chain: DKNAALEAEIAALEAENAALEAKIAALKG

[20] = biological target: T20, 4H324-AA; test: two-hybrid library CCmax; settings: mean of both orientations
T20 chain: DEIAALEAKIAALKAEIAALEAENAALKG

[21] = biological target: T21, 4H341-AA; test: two-hybrid library CCmax; settings: mean of both orientations
T21 chain: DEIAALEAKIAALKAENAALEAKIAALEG

[22] = biological target: T22, 4H3449-AA; test: two-hybrid library CCmax; settings: mean of both orientations
T22 chain: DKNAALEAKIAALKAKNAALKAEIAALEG

[23] = biological target: T23, 4H3619-AA; test: two-hybrid library CCmax; settings: mean of both orientations
T23 chain: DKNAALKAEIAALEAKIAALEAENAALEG

[24] = biological target: T24, 4H3629-AA; test: two-hybrid library CCmax; settings: mean of both orientations
T24 chain: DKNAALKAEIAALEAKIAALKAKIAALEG

[25] = biological target: T25, 4H3777-AA; test: two-hybrid library CCmax; settings: mean of both orientations
T25 chain: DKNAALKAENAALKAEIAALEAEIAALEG

[26] = biological target: T26, 4H380-AA; test: two-hybrid library CCmax; settings: mean of both orientations
T26 chain: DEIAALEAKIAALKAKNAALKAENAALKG

[27] = biological target: T27, 4H3915-AA; test: two-hybrid library CCmax; settings: mean of both orientations
T27 chain: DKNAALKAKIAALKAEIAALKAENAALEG

[28] = biological target: T28, 4H3974-AA; test: two-hybrid library CCmax; settings: mean of both orientations
T28 chain: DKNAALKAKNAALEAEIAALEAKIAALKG

[29] = biological target: T29, 4H432-AA; test: two-hybrid library CCmax; settings: mean of both orientations
T29 chain: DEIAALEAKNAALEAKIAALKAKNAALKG

[30] = biological target: T30, 4H446-AA; test: two-hybrid library CCmax; settings: mean of both orientations
T30 chain: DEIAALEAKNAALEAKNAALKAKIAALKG

[31] = biological target: T31, 4H63-AA; test: two-hybrid library CCmax; settings: mean of both orientations
T31 chain: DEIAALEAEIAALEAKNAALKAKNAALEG

[32] = biological target: T32, O6-AA; test: two-hybrid library CCmax
T32 chain: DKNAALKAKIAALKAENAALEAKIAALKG

[33] = biological target: T33, O7-AA; test: two-hybrid library CCmax; settings: mean of both orientations
T33 chain: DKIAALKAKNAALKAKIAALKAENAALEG

[34] = biological target: T34, O8-AA; test: two-hybrid library CCmax; settings: mean of both orientations
T34 chain: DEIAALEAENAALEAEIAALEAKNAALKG

[35] = biological target: T35, P10-AA; test: two-hybrid library CCmax; settings: mean of both orientations
T35 chain: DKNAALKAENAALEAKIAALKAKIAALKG

[36] = biological target: T36, P5-AA-1HGe-A; test: two-hybrid library CCmax; settings: mean of both orientations
T36 chain: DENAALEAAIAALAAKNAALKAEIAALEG

[37] = biological target: T37, P5-AA-1HGe-D; test: two-hybrid library CCmax; settings: mean of both orientations
T37 chain: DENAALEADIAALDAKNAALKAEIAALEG

[38] = biological target: T38, P5-AA-1HGe-H; test: two-hybrid library CCmax; settings: mean of both orientations
T38 chain: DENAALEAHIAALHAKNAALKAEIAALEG

[39] = biological target: T39, P5-AA-1HGe-M; test: two-hybrid library CCmax; settings: mean of both orientations
T39 chain: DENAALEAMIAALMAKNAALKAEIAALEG

[40] = biological target: T40, P5-AA-1HGe-Q; test: two-hybrid library CCmax; settings: mean of both orientations
T40 chain: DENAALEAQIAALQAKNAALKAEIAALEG

[41] = biological target: T41, P5-AA-1HGe-R; test: two-hybrid library CCmax; settings: mean of both orientations
T41 chain: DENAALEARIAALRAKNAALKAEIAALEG

[42] = biological target: T42, P5-AA-1HGe-S; test: two-hybrid library CCmax; settings: mean of both orientations
T42 chain: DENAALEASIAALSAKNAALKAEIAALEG

[43] = biological target: T43, P5-AA-1HGe-T; test: two-hybrid library CCmax; settings: mean of both orientations
T43 chain: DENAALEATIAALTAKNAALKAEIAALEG

[44] = biological target: T44, P5-AA-1HGe-W; test: two-hybrid library CCmax; settings: mean of both orientations
T44 chain: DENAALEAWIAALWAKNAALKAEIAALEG

[45] = biological target: T45, P5-AA-1HGe-Y; test: two-hybrid library CCmax; settings: mean of both orientations
T45 chain: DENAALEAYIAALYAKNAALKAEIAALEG

[46] = biological target: T46, P9-AA; test: two-hybrid library CCmax; settings: mean of both orientations
T46 chain: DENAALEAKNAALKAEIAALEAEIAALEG

[47] = biological target: T47, O10; test: two-hybrid library CCNG1
T47 chain: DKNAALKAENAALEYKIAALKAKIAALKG

[48] = biological target: T48, O11; test: two-hybrid library CCNG1
T48 chain: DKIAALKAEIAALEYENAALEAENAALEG

[49] = biological target: T49, O12; test: two-hybrid library CCNG1
T49 chain: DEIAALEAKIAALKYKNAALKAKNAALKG

[50] = biological target: T50, O13; test: two-hybrid library CCNG1
T50 chain: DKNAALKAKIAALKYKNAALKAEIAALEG

[51] = biological target: T51, O14; test: two-hybrid library CCNG1
T51 chain: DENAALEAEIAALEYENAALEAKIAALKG

[52] = biological target: T52, O15; test: two-hybrid library CCNG1
T52 chain: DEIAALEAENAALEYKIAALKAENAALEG

[53] = biological target: T53, O16; test: two-hybrid library CCNG1
T53 chain: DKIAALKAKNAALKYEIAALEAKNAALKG

[54] = biological target: T54, O1; test: two-hybrid library CCNG1
T54 chain: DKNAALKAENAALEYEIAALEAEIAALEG

[55] = biological target: T55, O2; test: two-hybrid library CCNG1
T55 chain: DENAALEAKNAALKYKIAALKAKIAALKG

[56] = biological target: T56, O3; test: two-hybrid library CCNG1
T56 chain: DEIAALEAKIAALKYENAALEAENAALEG

[57] = biological target: T57, O4; test: two-hybrid library CCNG1
T57 chain: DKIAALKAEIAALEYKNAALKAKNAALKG

[58] = biological target: T58, O5; test: two-hybrid library CCNG1
T58 chain: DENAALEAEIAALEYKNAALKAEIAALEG

[59] = biological target: T59, O6; test: two-hybrid library CCNG1
T59 chain: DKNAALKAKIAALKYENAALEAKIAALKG

[60] = biological target: T60, O7; test: two-hybrid library CCNG1
T60 chain: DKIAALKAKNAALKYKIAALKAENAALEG

[61] = biological target: T61, O8; test: two-hybrid library CCNG1
T61 chain: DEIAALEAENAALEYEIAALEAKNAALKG

[62] = biological target: T62, O9; test: two-hybrid library CCNG1
T62 chain: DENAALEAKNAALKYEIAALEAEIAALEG

DENAALEAENAALKAKIAALKAKIAALKG [4H1262-AA]
interaction score [1]: 0.551
interaction score [2]: 1.64
interaction score [3]: 0.283
interaction score [4]: -0.839
interaction score [5]: -0.611
interaction score [6]: -1.34
interaction score [7]: -1.09
interaction score [8]: -0.797
interaction score [9]: -0.555
interaction score [10]: -1.41
interaction score [11]: -0.779
interaction score [12]: -1.25
interaction score [13]: 1.09
interaction score [14]: 1.29
interaction score [15]: -1.83
interaction score [16]: 0.251
interaction score [17]: -0.013
interaction score [18]: 1.23
interaction score [19]: -0.633
interaction score [20]: -1.15
interaction score [21]: -1.06
interaction score [22]: -0.766
interaction score [23]: 1.07
interaction score [24]: -0.649
interaction score [25]: 2.49
interaction score [26]: -1.85
interaction score [27]: -0.487
interaction score [28]: 1.62
interaction score [29]: -1.48
interaction score [30]: -1.67
interaction score [31]: -0.668

DKNAALKAKIAALKAENAALEAKIAALKG [O6-AA]
interaction score [32]: -0.782
interaction score [33]: -0.751
interaction score [34]: 1.57
interaction score [35]: -1.2
interaction score [36]: 2.21
interaction score [37]: 1.7
interaction score [38]: 1.6
interaction score [39]: 2.06
interaction score [40]: 2.25
interaction score [41]: 1.98
interaction score [42]: 1.69
interaction score [43]: 2.12
interaction score [44]: 1.75
interaction score [45]: 1.74
interaction score [46]: -0.00244

DKNAALKAENAALEYEIAALEAEIAALEG [O1]
interaction score [47]: -1.12
interaction score [48]: -2.38
interaction score [49]: -2.35
interaction score [50]: -1.26
interaction score [51]: -2.4
interaction score [52]: -2.03
interaction score [53]: -2.54
interaction score [54]: -2.12
interaction score [55]: 1.45
interaction score [56]: -2.08
interaction score [57]: -2.08
interaction score [58]: -2.09
interaction score [59]: -2.86
interaction score [60]: -2.15
interaction score [61]: -2.46
interaction score [62]: -1.83
